Holding throughout (experiment): SPR (BIACORE), antibody captured, soluble FcgR as analyte, 25C
For orientation: In SPR one partner is held on a chip, and binding of the other changes the refractive index at the surface.

Assay [1] has as its target T1, cynomolgus monkey FcγRIIa1 extracellular domain, C-terminal His-tag (cynomolgus monkey).
T1 construct: also called cyno FcγRIIa1; FcgRIIa1; not shown: His-tag added to the C-terminus
T1 chain: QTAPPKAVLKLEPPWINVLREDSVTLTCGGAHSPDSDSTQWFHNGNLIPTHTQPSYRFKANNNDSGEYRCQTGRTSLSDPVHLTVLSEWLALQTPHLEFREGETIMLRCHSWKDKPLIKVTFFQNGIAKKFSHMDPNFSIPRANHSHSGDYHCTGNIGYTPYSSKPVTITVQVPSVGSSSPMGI
How it is done: (§1) The kinetic analysis of interactions between these antibodies and FcγR was carried out using BIACORE® T200 or BIACORE® 4000 (GE Healthcare). HBS-EP+ (GE Healthcare) was used as the running buffer, and the measurement temperature was set to 25° C. A chip produced by immobilizing Protein A. Protein A/G or mouse anti-human IgG kappa light chain (BD Biosciences) onto a Series S Sensor Chip CM4 or CM5 (GE Healthcare) by the amine-coupling method was used. […] After the measurement, the antibody captured on the chip was washed off by allowing reaction with 10 mM glycine-HCl, pH1.5 and 25 mM NaOH so that the chip was regenerated and used repeatedly. The sensorgrams obtained as measurement results were analyzed by the 1:1 Langmuir binding model using the BIACORE® Evaluation Software to calculate the binding rate constant ka (L/mol/s) and dissociation rate constant kd (l/s), and the dissociation constant KD (mol/L) was calculated from these values. […] Regarding such interactions, KD values were calculated using the following 1:1 binding model described in BIACORE® T100 Software Handbook BR1006-48 Edition AE.
(§2) The behavior of interacting molecules according to the 1:1 binding model on BIACORE® can be described by Equation 1: Req=C·R max/(KD+C)+RI, wherein, Req is a plot of steady-state binding levels to analyte concentration. C is concentration, RI is bulk refractive index contribution in the sample, and Rmax is analyte binding capacity of the surface. When this equation is rearranged, KD can be expressed as Equation 2: KD=C·Rmax/(Req−RI)−C. KD can be calculated by substituting the values of Rmax, RI, and C into Equation 1 or Equation 2. From the current measurement conditions, RI=0, C=2 μmol/L can be used.

The target of assay [2] is T2, cynomolgus monkey FcγRIIa2 extracellular domain, C-terminal His-tag (cynomolgus monkey).
T2 construct: also called cyno FcγRIIa2; FcgRIIa2; not shown: His-tag added to the C-terminus
T2 chain: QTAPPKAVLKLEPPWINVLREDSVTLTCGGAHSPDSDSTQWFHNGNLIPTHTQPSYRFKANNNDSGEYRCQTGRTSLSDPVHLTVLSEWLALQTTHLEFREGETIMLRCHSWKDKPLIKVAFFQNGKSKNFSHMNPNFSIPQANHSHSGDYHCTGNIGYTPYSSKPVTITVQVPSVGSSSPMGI
The protocol: as §1, §2

The target in assay [3] is T3, cynomolgus monkey FcγRIIa3 extracellular domain, C-terminal His-tag (cynomolgus monkey).
T3 construct: also called cyno FcγRIIa3; FcgRIIa3; not shown: His-tag added to the C-terminus
T3 chain: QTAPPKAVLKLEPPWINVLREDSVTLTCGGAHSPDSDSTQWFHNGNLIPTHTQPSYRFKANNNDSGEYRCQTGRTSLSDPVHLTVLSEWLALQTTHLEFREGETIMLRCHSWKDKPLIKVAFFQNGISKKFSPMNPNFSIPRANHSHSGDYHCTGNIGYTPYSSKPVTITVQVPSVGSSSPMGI
The protocol: as §1, §2

Assay [4] deals with T4, cynomolgus monkey FcγRIIIaS extracellular domain, C-terminal His-tag (cynomolgus monkey, UniProt A3RFZ7 21-206 (rhesus entry)).
T4 construct: also called cyno FcγRIIIaS; FcgRIIIaS; not shown: His-tag added to the C-terminus
The protocol:
as §1, §2

In assay [5] the target is T5, human FcγRIIaH extracellular domain, C-terminal His-tag (human, UniProt P12318 34-217).
T5 construct: also called human FcγRIIa (type H); FcgRIIaH; not shown: His-tag added to the C-terminus
T5 sequence: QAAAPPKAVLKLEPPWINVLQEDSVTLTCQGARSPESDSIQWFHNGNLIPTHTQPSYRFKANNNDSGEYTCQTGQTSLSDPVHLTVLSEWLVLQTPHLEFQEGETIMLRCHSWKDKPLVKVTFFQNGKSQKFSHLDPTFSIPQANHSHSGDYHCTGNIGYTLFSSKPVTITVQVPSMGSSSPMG
How it is done: as §1, §2

Assay [6] concerns the target T6, human FcγRIIaR extracellular domain, C-terminal His-tag (human, UniProt P12318 34-217).
T6 construct: also called human FcγRIIa (type R); FcgRIIaR; not shown: His-tag added to the C-terminus
T6 chain: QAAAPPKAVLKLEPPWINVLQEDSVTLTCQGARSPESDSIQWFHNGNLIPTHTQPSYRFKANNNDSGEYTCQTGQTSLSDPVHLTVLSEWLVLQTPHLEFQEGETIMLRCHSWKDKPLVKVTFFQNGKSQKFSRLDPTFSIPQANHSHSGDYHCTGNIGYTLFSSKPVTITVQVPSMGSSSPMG
How it is done: as §1, §2

Assay [7] has as its target T7, human FcγRIIb extracellular domain, C-terminal His-tag (human, UniProt P31994 43-217).
T7 construct: also called FcgRIIb; not shown: His-tag added to the C-terminus
T7 sequence: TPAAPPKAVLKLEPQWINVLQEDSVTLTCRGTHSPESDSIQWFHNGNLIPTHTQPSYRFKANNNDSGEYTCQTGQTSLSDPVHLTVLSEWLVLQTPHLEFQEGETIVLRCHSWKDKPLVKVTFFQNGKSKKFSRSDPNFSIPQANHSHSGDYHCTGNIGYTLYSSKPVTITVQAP
How it is done:
as §1, §2

The target in assay [8] is T8, human FcγRIIIaV extracellular domain, C-terminal His-tag (human, UniProt P08637 17-208).
T8 construct: also called FcgRIIIaV; not shown: His-tag added to the C-terminus
How it is done:
as §1, §2

Data on 4 molecules can be found in patent US20200317768A1 (published 2020).

T8 sequence (P08637 17-208 F176V): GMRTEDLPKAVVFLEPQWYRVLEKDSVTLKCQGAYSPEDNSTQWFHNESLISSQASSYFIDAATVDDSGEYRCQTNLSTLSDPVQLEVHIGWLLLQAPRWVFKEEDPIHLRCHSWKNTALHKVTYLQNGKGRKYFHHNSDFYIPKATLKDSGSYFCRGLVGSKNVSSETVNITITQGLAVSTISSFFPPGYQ
T4 sequence (A3RFZ7 21-206): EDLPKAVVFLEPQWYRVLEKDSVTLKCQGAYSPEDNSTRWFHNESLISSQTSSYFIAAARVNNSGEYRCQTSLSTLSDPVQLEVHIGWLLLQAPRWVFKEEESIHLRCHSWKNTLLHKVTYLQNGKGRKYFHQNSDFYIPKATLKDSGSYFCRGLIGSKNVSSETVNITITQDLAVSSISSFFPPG

B1: MS1032LO06-MY351 (M103205H795-MY351/M103202L889-SK1) (antibody, human IgG1, kappa)
heavy: QVTLKESGPVLVKPTETLTLTCTVSGIDLSHDDISWVRQAPGKGLEWVGIISYAGSTYYASWAKGRLTISKDTSKNQVVLTMTNMDPVDTATYYCARGVPAYSHGGDLWGQGTLVTVSSASTKGPSVFPLAPSSKSTSGGTAALGCLVKDYFPEPVTVSWNSGALTSGVHTFPAVLQSSGLYSLSSVVTVPSSSLGTQTYICNVNHKPSNTKVDKKVEPKSCDKTHTCPPCPAPELLNGPSVFLFPPKPKDTLMISRTPEVTCVVVDVSDEDPEVKFNWYVDGVEVHNAKTKPREEQYNSTYRVVSVLTVLHRDWLNGKEYKCKVSNKALPKPIEKTISKAKGQPREPQVYTLPPSREEMTKNQVSLTCLVKGFYPSDIAVEWESNGQPENNYKTTPPVLDSDGSFFLYSKLTVKKSRWQQGNVFSCSVMHEALHNHYTQKSLSLSP
light: DIVMTQSPATLSLSPGERATLSCTSSQSVYHANWLSWFQQKPGQPPKLLIYWASTLAYGVPSRFSGSGSGTDFTLTISSLQPEDAATYYCAGGYGGGRYAFGQGTKVEIKRTVAAPSVFIFPPSDEQLKSGTASVVCLLNNFYPREAKVQWKVDNALQSGNSQESVTEQDSKDSTYSLSSTLTLSKADYEKHKVYACEVTHQGLSSPVTKSFNRGEC
notes: CH MY351 = SG1 with G236N/H268D/Q311R/A330K/D413K (EU numbering); also called MS103205H795-MY351
For the molecule B1, the dissociation constant (Kd) (as a rule, the free concentration of one partner at which half of the binding sites on the other are occupied at equilibrium, for simple one-to-one binding) in assay [1] amounted to 1600 nM; in assay [2], 1300 nM; in assay [3], 2200 nM; in assay [4], 4100 nM; in assay [5] it was 1200 nM; in assay [6], 1600 nM. Moreover, the Kd came to 970 nM in assay [7] and 7400 nM in assay [8].

B2: MS1032LO06-MY352 (M103205H795-MY352/M103202L889-SK1) (antibody, human IgG1, kappa, name in EU numbering)
heavy: QVTLKESGPVLVKPTETLTLTCTVSGIDLSHDDISWVRQAPGKGLEWVGIISYAGSTYYASWAKGRLTISKDTSKNQVVLTMTNMDPVDTATYYCARGVPAYSHGGDLWGQGTLVTVSSASTKGPSVFPLAPSSKSTSGGTAALGCLVKDYFPEPVTVSWNSGALTSGVHTFPAVLQSSGLYSLSSVVTVPSSSLGTQTYICNVNHKPSNTKVDKKVEPKSCDKTHTCPPCPAPELLNGPSVFLFPPKPKDTLMISRTPEVTCVVVDVSDEDPEVKFNWYVDGVEVHNAKTKPREEQYNSTYRVVSVLTVLHRDWLNGKEYKCKVSNKALPKPIEKTISKAKGQPREPQVYTLPPSREEMTKNQVSLTCLVKGFYPSDIAVEWESNGQPENNYKTTPPVLDSDGSFFLYSKLTVRKSRWQQGNVFSCSVMHEALHNHYTQKSLSLSP
light: DIVMTQSPATLSLSPGERATLSCTSSQSVYHANWLSWFQQKPGQPPKLLIYWASTLAYGVPSRFSGSGSGTDFTLTISSLQPEDAATYYCAGGYGGGRYAFGQGTKVEIKRTVAAPSVFIFPPSDEQLKSGTASVVCLLNNFYPREAKVQWKVDNALQSGNSQESVTEQDSKDSTYSLSSTLTLSKADYEKHKVYACEVTHQGLSSPVTKSFNRGEC
notes: Printed substitutions: G236N/H268D/Q311R/A330K/D413R (EU numbering); also called MS103205H795-MY352
Regarding B2, the dissociation constant Kd turned out to be 1700 nM in assay [1]; 1300 nM in assay [2]; 2200 nM in assay [3]; 4000 nM in assay [4]; 1200 nM in assay [5]; 1600 nM in assay [6]. For the same molecule, the Kd is 1000 nM in assay [7] and 11000 nM in assay [8].

B3: MS1032LO06-PK55 (M103205H795-PK55/M103202L889-SK1) (antibody, human IgG1, kappa)
heavy: QVTLKESGPVLVKPTETLTLTCTVSGIDLSHDDISWVRQAPGKGLEWVGIISYAGSTYYASWAKGRLTISKDTSKNQVVLTMTNMDPVDTATYYCARGVPAYSHGGDLWGQGTLVTVSSASTKGPSVFPLAPSSKSTSGGTAALGCLVKDYFPEPVTVSWNSGALTSGVHTFPAVLQSSGLYSLSSVVTVPSSSLGTQTYICNVNHKPSNTKVDKKVEPKSCDKTHTCPPCPAPELLNGPSVFLFPPKPKDTLMISRTPEVTCVVVDVSDEDPEVKFNWYVDGVEVHNAKTKPREEQYNSTYRVVSVLTVLHRDWLNGKEYKCKVSNKALPKPIEKTISKAKGQRREPQVYTLPPSREEMTKNQVSLTCLVKGFYPSDIAVEWESNGQPENNYKTTPPVLDSDGSFFLYSKLTVDKSRWQQGNVFSCSVMHEALHNHYTQKSLSLSP
light: DIVMTQSPATLSLSPGERATLSCTSSQSVYHANWLSWFQQKPGQPPKLLIYWASTLAYGVPSRFSGSGSGTDFTLTISSLQPEDAATYYCAGGYGGGRYAFGQGTKVEIKRTVAAPSVFIFPPSDEQLKSGTASVVCLLNNFYPREAKVQWKVDNALQSGNSQESVTEQDSKDSTYSLSSTLTLSKADYEKHKVYACEVTHQGLSSPVTKSFNRGEC
notes: CH PK55 = SG1 with G236N/H268D/Q311R/A330K/P343R (EU numbering); also called MS103205H795-PK55
For B3, the dissociation constant (Kd) turned out to be 1400 nM in assay [1]; 1200 nM in assay [2]; 2000 nM in assay [3]; 3300 nM in assay [4]; 830 nM in assay [5]; 1500 nM in assay [6]. For the same molecule, the equilibrium dissociation constant (Kd) in assay [7] came out at 760 nM; in assay [8] it was 13000 nM.

B4: MS1032LO06-PK56 (M103205H795-PK56/M103202L889-SK1) (antibody, human IgG1, kappa)
heavy: QVTLKESGPVLVKPTETLTLTCTVSGIDLSHDDISWVRQAPGKGLEWVGIISYAGSTYYASWAKGRLTISKDTSKNQVVLTMTNMDPVDTATYYCARGVPAYSHGGDLWGQGTLVTVSSASTKGPSVFPLAPSSKSTSGGTAALGCLVKDYFPEPVTVSWNSGALTSGVHTFPAVLQSSGLYSLSSVVTVPSSSLGTQTYICNVNHKPSNTKVDKKVEPKSCDKTHTCPPCPAPELLNGPSVFLFPPKPKDTLMISRTPEVTCVVVDVSDEDPEVKFNWYVDGVEVHNAKTKPREEQYNSTYRVVSVLTVLHRDWLNGKEYKCKVSNKALPKPIEKTISKAKGQRREPQVYTLPPSREEMTKNQVSLTCLVKGFYPSDIAVEWESNGQPENNYKTTPPVLDSDGSFFLYSKLTVRKSRWQQGNVFSCSVMHEALHNHYTQKSLSLSP
light: DIVMTQSPATLSLSPGERATLSCTSSQSVYHANWLSWFQQKPGQPPKLLIYWASTLAYGVPSRFSGSGSGTDFTLTISSLQPEDAATYYCAGGYGGGRYAFGQGTKVEIKRTVAAPSVFIFPPSDEQLKSGTASVVCLLNNFYPREAKVQWKVDNALQSGNSQESVTEQDSKDSTYSLSSTLTLSKADYEKHKVYACEVTHQGLSSPVTKSFNRGEC
notes: CH PK56 = SG1 with G236N/H268D/Q311R/A330K/P343R/D413R (EU numbering); also called MS103205H795-PK56
With B4, the equilibrium dissociation constant (Kd) amounted to 1800 nM in assay [1]; 1500 nM in assay [2]; 2500 nM in assay [3]; 4400 nM in assay [4]; 1200 nM in assay [5]; 1900 nM in assay [6]. The Kd is 1000 nM in assay [7] and 10000 nM in assay [8].
